According to US9187525B2, “Methods of treating ophthalmic diseases using NPR-B agonists” (Shire Orphan Therapies GmbH, dated 2015):
Numbered stars: 1 amine (or outer) side, 2 acyl side, 3 side chain; on linkers, the order of the positions; unused ones are H or OH. Square brackets hold non-standard residues; d marks the D form. Ends that are not written are not given here. * marks the point of attachment. 6988 = 2-pentyl-benzooxazole-5-carboxylic acid, CCCCCc1nc2cc(C(=O)*)ccc2o1; 3421 = 3-Amino-4-hydroxy-benzoic acid, O=C(c1ccc(O[*:3])c(N[*:1])c1)[*:2]; 4703 = 3-(4-bromo-phenyl)-propionic acid, O=C(CCc1ccc(Br)cc1)*; 4734 = (4-butoxy-phenyl)-acetic acid, CCCCOc1ccc(CC(=O)*)cc1; Pro(trans-4-NH2) = O=C([C@@H]1C[C@@H](N[*:3])CN1[*:1])[*:2]; Sni = (S)-nipecotic acid, O=C([C@H]1CCCN([*:1])C1)[*:2]; 1695 = Piperidine-1,2-dicarboxylic acid 1-benzyl ester; Butanoyl(4-(4-MeO-phenyl)) = COc1ccc(CCCC(=O)*)cc1; Phe(3,4-Cl2) = N[C@@H](Cc1ccc(Cl)c(Cl)c1)C(=O)O; Pbf = Cc1c(C)c(S(=O)(=O)*)c(C)c2c1OC(C)(C)C2; Phe(3-Cl) = N[C@@H](Cc1cccc(Cl)c1)C(=O)O; Butanoyl(4-cHex) = O=C(CCCC1CCCCC1)*; Pentanoyl(5-Ph) = O=C(CCCCc1ccccc1)*; Butanoyl(4-Ph) = O=C(CCCc1ccccc1)*; NMeR = CN[C@@H](CCCNC(=N)N)C(=O)O; dDap(Me2) = CN(C)C[C@@H](N)C(=O)O; Hyp = O=C(O)[C@@H]1C[C@@H](O)CN1; NMeF = CN[C@@H](Cc1ccccc1)C(=O)O; NMeI = CC[C@H](C)[C@H](NC)C(=O)O; tBuAla = CC(C)(C)C[C@H](N)C(=O)O; 3Thi = N[C@@H](Cc1ccsc1)C(=O)O; NMeD = CN[C@@H](CC(=O)O)C(=O)O; NMeL = CN[C@@H](CC(C)C)C(=O)O; Octanoyl = CCCCCCCC(=O)*; Api = NC1(C(=O)O)CCNCC1; Che = not defined here; Hexanoyl = CCCCCC(=O)*; leu = not defined here; Occ = octanoic acid

T1: natriuretic peptide receptor-B (human)
T1 chain: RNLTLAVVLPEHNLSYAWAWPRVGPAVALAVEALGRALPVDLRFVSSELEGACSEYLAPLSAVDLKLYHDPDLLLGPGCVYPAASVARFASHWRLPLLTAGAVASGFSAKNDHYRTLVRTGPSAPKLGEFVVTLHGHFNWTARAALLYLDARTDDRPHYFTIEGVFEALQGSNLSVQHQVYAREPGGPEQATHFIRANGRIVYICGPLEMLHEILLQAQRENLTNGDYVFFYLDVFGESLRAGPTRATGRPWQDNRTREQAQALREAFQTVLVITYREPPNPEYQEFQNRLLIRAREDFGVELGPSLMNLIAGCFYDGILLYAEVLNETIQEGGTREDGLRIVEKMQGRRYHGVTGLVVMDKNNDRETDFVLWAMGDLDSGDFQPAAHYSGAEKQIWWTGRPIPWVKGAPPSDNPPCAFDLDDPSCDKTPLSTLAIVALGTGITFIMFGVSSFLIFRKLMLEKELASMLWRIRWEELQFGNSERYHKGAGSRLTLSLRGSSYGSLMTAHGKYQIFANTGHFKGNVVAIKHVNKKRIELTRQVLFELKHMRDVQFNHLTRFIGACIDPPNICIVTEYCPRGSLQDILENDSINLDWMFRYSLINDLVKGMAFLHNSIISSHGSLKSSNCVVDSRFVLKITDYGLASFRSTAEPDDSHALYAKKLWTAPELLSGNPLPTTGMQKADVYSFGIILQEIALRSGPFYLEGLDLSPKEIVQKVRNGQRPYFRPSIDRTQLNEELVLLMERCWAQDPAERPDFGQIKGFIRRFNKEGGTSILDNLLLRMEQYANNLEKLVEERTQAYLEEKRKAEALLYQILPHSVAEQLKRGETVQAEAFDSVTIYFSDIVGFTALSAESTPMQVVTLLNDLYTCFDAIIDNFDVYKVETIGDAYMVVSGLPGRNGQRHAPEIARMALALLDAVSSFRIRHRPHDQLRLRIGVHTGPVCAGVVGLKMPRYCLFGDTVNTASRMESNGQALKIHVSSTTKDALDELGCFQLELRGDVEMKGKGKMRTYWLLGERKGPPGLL


Target: T1, natriuretic peptide receptor-B
Assay: cell-based or functional assay

| EC50 group, cGMP in GTM-3 cells [µM] | Binder |
| --- | --- |
| ≤ 1 | [Occ][Sni]F[Api]L[Pro(trans-4-NH2)][NMeL]DP[Che] (reading uncertain; also: printed as Occ-Sni-Phe-Apc-Leu-Tap-Nml-Asp-Pro-Che) [JAL-1602] |
| ≤ 1 | Octanoyl-[Sni][Phe(3,4-Cl2)][dL]L[Hyp][NMeL]DP[Che] (not fully specified; printed as Occ-Sni-Eaa-leu-Leu-Hyp-Nml-Asp-Pro-Che; reading uncertain) [JAL-1599] |
| ≤ 15 | [Occ][Sni]F[dDap(Me2)]L[Hyp][NMeL][NMeD]RI-NH2 [JAL-1577] |
| ≤ 15 | [Occ]XFXLXXDRI-NH2 (not fully specified (residues 2, 4, 6, 7); printed as Occ-Sni-Phe-nml-Leu-Hyp-Nml-Asp-Arg-Ile-NH2) [JAL-1574] |
| ≤ 1 | [Occ][Sni][NMeF][dDap(Me2)]L[Hyp][NMeL]DRI-NH2 [JAL-1579] |
| ≤ 15 | {Pentanoyl(5-Ph)}-[dP]FGLKLDRI-NH2 [JAL-0696] |
| ≤ 1 | [Occ][Sni][NMeF][dL]L[Hyp][NMeL]DRI-NH2 [JAL-1573] |
| ≤ 5 | 4734-[Sni]F[dL]L[Hyp][NMeL]DRI-NH2 [JAL-1609] |
| ≤ 1 | [Occ][Sni]F[dDap(Me2)]L[Hyp][NMeL]DPI-NH2 [JAL-1580] |
| ≤ 1 | [Occ][Sni]F[dDap(Me2)]L[Hyp][NMeL]D[NMeR]I-NH2 [JAL-1576] |
| ≤ 5 | Octanoyl-[Sni]FLL[Hyp][NMeL]VP[Che] (not fully specified (some residues); printed as Occ-Sni-Phe-leu-Leu-Hyp-Nml-Val-Pro-Che; reading uncertain) [JAL-1594] |
| ≤ 5 | Octanoyl-[Sni]FLL[Hyp]IDP[Che] (not fully specified (some residues); printed as Occ-Sni-Phe-leu-Leu-Hyp-Ile-Asp-Pro-Che; reading uncertain) [JAL-1596] |
| ≤ 1 | Octanoyl-[Sni][Phe(3-Cl)][dL]L[Hyp][NMeL]DRI-NH2 (not fully specified; printed as Occ-Sni-Mcf-leu-Leu-Hyp-Nml-Asp-Arg-Ile-NH2) [JAL-1618] |
| ≤ 5 | [Occ][Sni]F[Api]L[Hyp][NMeL]DP[Che] (reading uncertain; also: printed as Occ-Sni-Phe-Apc-Leu-Hyp-Nml-Asp-Pro-Che) [JAL-1601] |
| ≤ 15 | 1695-[Sni]F[dL]L[Hyp][NMeL]DRI-NH2 (not fully specified; printed as 1695-Sni-Phe-leu-Leu-Hyp-Nml-Asp-Arg-Ile-NH2) [JAL-1617] |
| ≤ 1 | Octanoyl-[Sni][NMeF][dL]L[Hyp][NMeL]DP[Che] (not fully specified; printed as Occ-Sni-Nmf-leu-Leu-Hyp-Nml-Asp-Pro-Che; reading uncertain) [JAL-1597] |
| ≤ 15 | {Butanoyl(4-(4-MeO-phenyl))}-[Sni]F[dL]L[Hyp][NMeL]DRI-NH2 [JAL-1607] |

| EC50 group, cGMP in GTM-3 cells [µM] | Binder |
| --- | --- |
| ≤ 1 | [Occ][Sni]F[dDap(Me2)]L[Pro(trans-4-NH2)][NMeL]DP[Che] (reading uncertain; also: printed as Occ-Sni-Phe-dap(Me2)-Leu-Tap-Nml-Asp-Pro-Che) [JAL-1603] |
| ≤ 5 | [Occ][Sni]FGL[Hyp][NMeL]DP[Che] (reading uncertain; also: printed as Occ-Sni-Phe-Gly-Leu-Hyp-Nml-Asp-Pro-Che) [JAL-1600] |
| ≤ 1 | [Occ][Sni][3Thi][leu]L[Hyp][NMeL]DRI-NH2 (reading uncertain; also: printed as Occ-Sni-Thk-leu-Leu-Hyp-Nml-Asp-Arg-Ile-NH2) [JAL-1620] |
| ≤ 1 | [Occ][Sni][Pbf][leu]L[Hyp][NMeL]DRI-NH2 (reading uncertain; also: printed as Occ-Sni-Pbf-leu-Leu-Hyp-Nml-Asp-Arg-Ile-NH2) [JAL-1619] |
| ≤ 1 | [Occ][Sni]F[dDap(Me2)]L[Hyp][NMeL]DP[Che] (reading uncertain; also: printed as Occ-Sni-Phe-dap(Me2)-Leu-Hyp-Nml-Asp-Pro-Che) [JAL-1604] |
| ≤ 15 | [Occ][Sni]F[dDap(Me2)]L[Hyp][NMeL]DR[NMeI]-NH2 [JAL-1575] |
| ≤ 5 | [Occ][Sni]F[dDap(Me2)][NMeL][Hyp][NMeL]DRI-NH2 [JAL-1578] |
| ≤ 1 | Octanoyl-[Sni]FLL[Hyp][tBuAla]DP[Che] (not fully specified (some residues); printed as Occ-Sni-Phe-leu-Leu-Hyp-Npg-Asp-Pro-Che; reading uncertain) [JAL-1595] |
| ≤ 1 | {Butanoyl(4-Ph)}-[Sni]F[dL]L[Hyp][NMeL]DRI-NH2 [JAL-1605] |
| ≤ 1 | {Pentanoyl(5-Ph)}-[Sni]F[dL]L[Hyp][NMeL]DRI-NH2 [JAL-1606] |
| ≤ 15 | {Butanoyl(4-cHex)}-[dP]FGLKLDRI-NH2 [JAL-0695] |
| ≤ 5 | 4703-[Sni]F[dL]L[Hyp][NMeL]DRI-NH2 [JAL-1612] |
| ≤ 15 | Octanoyl-[Sni]F[dL][NMeL][Hyp][NMeL]DP[Che] (not fully specified; printed as Occ-Sni-Phe-leu-Nml-Hyp-Nml-Asp-Pro-Che; reading uncertain) [JAL-1598] |
| ≤ 5 | Hexanoyl-[3421][Sni]F[dL]L[Hyp][NMeL]DRI-NH2 (not fully specified; printed as Hex-(3421)-Sni-Phe-leu-Leu-Hyp-Nml-Asp-Arg-Ile-NH2) [JAL-1616] |
| ≤ 15 | Octanoyl-[dP]FGLKLDRI-NH2 [JAL-0694] |
| ≤ 15 | [Occ][Sni]F[dL][NMeL][Hyp][NMeL]DRI-NH2 [JAL-1572] |
| ≤ 15 | 6988-[Sni]F[dL]L[Hyp][NMeL]DRI-NH2 [JAL-1615] |
